Laboratory results: US11814435B2, “Therapeutic antibodies and their uses” (PFIZER INC., priority 2015, dated 2023)

T1: hBCMA (human BCMA) (Homo sapiens, UniProt Q02223)
T1 sequence (Q02223 1-184): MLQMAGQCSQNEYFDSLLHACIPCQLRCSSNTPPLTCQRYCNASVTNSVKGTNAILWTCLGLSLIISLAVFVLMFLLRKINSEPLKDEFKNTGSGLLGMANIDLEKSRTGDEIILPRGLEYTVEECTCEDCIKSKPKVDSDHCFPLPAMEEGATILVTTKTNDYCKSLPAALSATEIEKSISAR


How the values were obtained:
hBCMA (human BCMA) = target: T1, hBCMA (human BCMA); assay: Kinetics and affinity of hBCMA/human IgG interactions by SPR (Bio-Rad Proteon XPR36); format: binding; settings: huBCMA, 37° C.
Outline: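 Kinetics and affinity came from double-referenced sensorgrams fit to a 1:1 Langmuir model with mass transport. The fits used a five-step kinetic titration of BCMA (0.08-50 nM, 2 min each, then 2 h dissociation) over immobilized IgGs, run at 37° C. or 25° C. in HBS-T+ pH 7.4 containing 1 mg/mL BSA.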

cyBCMA = assay: Kinetics and affinity of cyBCMA/human IgG interactions by SPR (Bio-Rad Proteon XPR36); format: binding, cynomolgus; settings: 37° C.

| Molecule | ka (1/Ms) huBCMA @ 37° C. (hBCMA (human BCMA)) | kd (1/s) huBCMA @37° C. (hBCMA (human BCMA)) | kd (1/s) cyBCMA @37° C. (cyBCMA) | ka (1/Ms) cyBCMA @ 37° C. (cyBCMA) |
| --- | --- | --- | --- | --- |
| L3.PY/L3.KF/H2.YQ: anti-BCMA antibody (antibody, V domains shown) VH: EVQLLESGGGLVQPGGSLRLSCAASGFTFGSYAMTWVRQAPGKGLEWVSAISYQGGNTFYADSVKGRFTISRDNSKNTLYLQMNSLRAEDTAVYYCARVSPIASGMDYWGQGTLVTVSS VL: EIVLTQSPGTLSLSPGERATLSCRASQSVSSSYLAWYQQKPGQAPRLLIYGASSRATGIPDRFSGSGSGTDFTLTISRLEPEDFAVYYCKFYPYPPSFTFGQGTKVEIK | 1.96e+06 M⁻¹ s⁻¹ | 0.00223 s⁻¹ | 0.00501 s⁻¹ | 1.41e+06 M⁻¹ s⁻¹ |
| L3.PY/L3.KY/H2.QR: anti-BCMA antibody (antibody, V domains shown) VH: EVQLLESGGGLVQPGGSLRLSCAASGFTFGSYAMTWVRQAPGKGLEWVSAISGSGGNTFYADQRKGRFTISRDNSKNTLYLQMNSLRAEDTAVYYCARVSPIASGMDYWGQGTLVTVSS VL: EIVLTQSPGTLSLSPGERATLSCRASQSVSSSYLAWYQQKPGQAPRLLIYGASSRATGIPDRFSGSGSGTDFTLTISRLEPEDFAVYYCKYYPYPPSFTFGQGTKVEIK | 2.95e+06 M⁻¹ s⁻¹ | 0.00099 s⁻¹ | 0.00774 s⁻¹ | 2.05e+06 M⁻¹ s⁻¹ |
| L3.PY/L3.KY/H3.YA: anti-BCMA antibody (antibody, V domains shown) VH: EVQLLESGGGLVQPGGSLRLSCAASGFTFGSYAMTWVRQAPGKGLEWVSAISGSGGNTFYADSVKGRFTISRDNSKNTLYLQMNSLRAEDTAVYYCARVSPIYAGMDYWGQGTLVTVSS VL: EIVLTQSPGTLSLSPGERATLSCRASQSVSSSYLAWYQQKPGQAPRLLIYGASSRATGIPDRFSGSGSGTDFTLTISRLEPEDFAVYYCKYYPYPPSFTFGQGTKVEIK | 3.3e+06 M⁻¹ s⁻¹ | 0.000912 s⁻¹ | 0.00428 s⁻¹ | 1.84e+06 M⁻¹ s⁻¹ |
| L3.PY/L3.KY/H2.YQ: anti-BCMA antibody (antibody, V domains shown) VH: EVQLLESGGGLVQPGGSLRLSCAASGFTFGSYAMTWVRQAPGKGLEWVSAISYQGGNTFYADSVKGRFTISRDNSKNTLYLQMNSLRAEDTAVYYCARVSPIASGMDYWGQGTLVTVSS VL: EIVLTQSPGTLSLSPGERATLSCRASQSVSSSYLAWYQQKPGQAPRLLIYGASSRATGIPDRFSGSGSGTDFTLTISRLEPEDFAVYYCKYYPYPPSFTFGQGTKVEIK | 2.14e+06 M⁻¹ s⁻¹ | 0.00165 s⁻¹ | 0.00258 s⁻¹ | 1.27e+06 M⁻¹ s⁻¹ |
| L3.PY/L3.KF/H2.DY: anti-BCMA antibody (antibody, V domains shown) VH: EVQLLESGGGLVQPGGSLRLSCAASGFTFGSYAMTWVRQAPGKGLEWVSAIDYSGGNTFYADSVKGRFTISRDNSKNTLYLQMNSLRAEDTAVYYCARVSPIASGMDYWGQGTLVTVSS VL: EIVLTQSPGTLSLSPGERATLSCRASQSVSSSYLAWYQQKPGQAPRLLIYGASSRATGIPDRFSGSGSGTDFTLTISRLEPEDFAVYYCKFYPYPPSFTFGQGTKVEIK | 2.74e+06 M⁻¹ s⁻¹ | 0.00182 s⁻¹ | 0.00368 s⁻¹ | 2.08e+06 M⁻¹ s⁻¹ |
| L3.PY/L3.KY/H2.LT: anti-BCMA antibody (antibody, V domains shown) VH: EVQLLESGGGLVQPGGSLRLSCAASGFTFGSYAMTWVRQAPGKGLEWVSAISLTGGNTFYADSVKGRFTISRDNSKNTLYLQMNSLRAEDTAVYYCARVSPIASGMDYWGQGTLVTVSS VL: EIVLTQSPGTLSLSPGERATLSCRASQSVSSSYLAWYQQKPGQAPRLLIYGASSRATGIPDRFSGSGSGTDFTLTISRLEPEDFAVYYCKYYPYPPSFTFGQGTKVEIK | 2.92e+06 M⁻¹ s⁻¹ | 0.000906 s⁻¹ | 0.00232 s⁻¹ | 1.82e+06 M⁻¹ s⁻¹ |
| L3.PY/L3.KY/H2.DY: anti-BCMA antibody (antibody, V domains shown) VH: EVQLLESGGGLVQPGGSLRLSCAASGFTFGSYAMTWVRQAPGKGLEWVSAIDYSGGNTFYADSVKGRFTISRDNSKNTLYLQMNSLRAEDTAVYYCARVSPIASGMDYWGQGTLVTVSS VL: EIVLTQSPGTLSLSPGERATLSCRASQSVSSSYLAWYQQKPGQAPRLLIYGASSRATGIPDRFSGSGSGTDFTLTISRLEPEDFAVYYCKYYPYPPSFTFGQGTKVEIK | 3.19e+06 M⁻¹ s⁻¹ | 0.000642 s⁻¹ | 0.00243 s⁻¹ | 1.96e+06 M⁻¹ s⁻¹ |
| L3.PY/L3.KY/H2.QL: anti-BCMA antibody (antibody, V domains shown) VH: EVQLLESGGGLVQPGGSLRLSCAASGFTFGSYAMTWVRQAPGKGLEWVSAISGSGGNTFYADQLKGRFTISRDNSKNTLYLQMNSLRAEDTAVYYCARVSPIASGMDYWGQGTLVTVSS VL: EIVLTQSPGTLSLSPGERATLSCRASQSVSSSYLAWYQQKPGQAPRLLIYGASSRATGIPDRFSGSGSGTDFTLTISRLEPEDFAVYYCKYYPYPPSFTFGQGTKVEIK | 3.65e+06 M⁻¹ s⁻¹ | 0.00208 s⁻¹ | 0.00409 s⁻¹ | 2.75e+06 M⁻¹ s⁻¹ |

More lines, main results first:

| ka (1/Ms) huBCMA @ 37° C. (hBCMA (human BCMA)) | kd (1/s) huBCMA @37° C. (hBCMA (human BCMA)) | kd (1/s) cyBCMA @37° C. (cyBCMA) | Molecule | ka (1/Ms) cyBCMA @ 37° C. (cyBCMA) |
| --- | --- | --- | --- | --- |
| 3.58e+06 M⁻¹ s⁻¹ | 0.00213 s⁻¹ | 0.0032 s⁻¹ | L3.PY/L1.PH/H3.TAQ: anti-BCMA antibody (antibody, V domains shown) VH: EVQLLESGGGLVQPGGSLRLSCAASGFTFGSYAMTWVRQAPGKGLEWVSAISGSGGNTFYADSVKGRFTISRDNSKNTLYLQMNSLRAEDTAVYYCTRVSPIAAQMDYWGQGTLVTVSS VL: EIVLTQSPGTLSLSPGERATLSCRASQSVSPHYLAWYQQKPGQAPRLLIYGASSRATGIPDRFSGSGSGTDFTLTISRLEPEDFAVYYCQHYPYPPSFTFGQGTKVEIK | 2.51e+06 M⁻¹ s⁻¹ |
| 2.79e+06 M⁻¹ s⁻¹ | 0.000649 s⁻¹ | 0.00192 s⁻¹ | L3.PY/L3.KY/H3.TAQ: anti-BCMA antibody (antibody, V domains shown) VH: EVQLLESGGGLVQPGGSLRLSCAASGFTFGSYAMTWVRQAPGKGLEWVSAISGSGGNTFYADSVKGRFTISRDNSKNTLYLQMNSLRAEDTAVYYCTRVSPIAAQMDYWGQGTLVTVSS VL: EIVLTQSPGTLSLSPGERATLSCRASQSVSSSYLAWYQQKPGQAPRLLIYGASSRATGIPDRFSGSGSGTDFTLTISRLEPEDFAVYYCKYYPYPPSFTFGQGTKVEIK | 1.81e+06 M⁻¹ s⁻¹ |
| 3.29e+06 M⁻¹ s⁻¹ | 0.00163 s⁻¹ | 0.00318 s⁻¹ | L3.PY/L3.KY/H2.HA: anti-BCMA antibody (antibody, V domains shown) VH: EVQLLESGGGLVQPGGSLRLSCAASGFTFGSYAMTWVRQAPGKGLEWVSAISHAGGNTFYADSVKGRFTISRDNSKNTLYLQMNSLRAEDTAVYYCARVSPIASGMDYWGQGTLVTVSS VL: EIVLTQSPGTLSLSPGERATLSCRASQSVSSSYLAWYQQKPGQAPRLLIYGASSRATGIPDRFSGSGSGTDFTLTISRLEPEDFAVYYCKYYPYPPSFTFGQGTKVEIK | 2.28e+06 M⁻¹ s⁻¹ |
